# Data published in patent US20170327571A1 (BEIJING BETTERMAB BIOTECHNOLOGY, published 2017).
# T1: huIL17-his (human IL17 with C-terminal His-tag) (human (homo sapiens), UniProt Q16552 24-155)
# T1 sequence: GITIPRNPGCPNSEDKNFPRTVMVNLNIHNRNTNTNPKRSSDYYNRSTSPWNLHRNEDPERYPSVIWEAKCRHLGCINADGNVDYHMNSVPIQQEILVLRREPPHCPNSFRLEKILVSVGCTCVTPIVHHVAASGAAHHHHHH
# T2: Macaca fascicularis IL17 (mfIL17) (Macaca fascicularis, UniProt Q16552 24-155 (human entry), limits assumed)
# T2 chain: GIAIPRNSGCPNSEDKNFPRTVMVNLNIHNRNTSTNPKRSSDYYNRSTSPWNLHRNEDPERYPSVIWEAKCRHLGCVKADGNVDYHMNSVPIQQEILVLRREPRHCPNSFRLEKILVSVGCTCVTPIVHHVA
# T3: mouse (Mus musculus) IL17 (moIL17) (mouse (Mus musculus), UniProt Q62386 26-158)
# T3 construct: also called mIL17; mouse IL17
# T3 sequence: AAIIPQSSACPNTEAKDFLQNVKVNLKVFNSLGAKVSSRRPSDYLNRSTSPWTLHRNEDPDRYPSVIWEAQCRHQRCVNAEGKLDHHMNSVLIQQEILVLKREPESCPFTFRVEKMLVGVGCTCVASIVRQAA
# T4: Macaca mulatta IL17 (mmIL17) (Macaca mulatta, UniProt Q16552 24-155 (human entry), limits assumed)
# T4 chain: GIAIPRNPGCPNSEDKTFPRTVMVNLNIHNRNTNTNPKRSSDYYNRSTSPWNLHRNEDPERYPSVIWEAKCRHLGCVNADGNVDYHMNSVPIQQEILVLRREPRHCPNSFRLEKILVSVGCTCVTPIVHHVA
# B1: anti-IL17 monoclonal antibody 9GA3 (antibody, V domains shown)
# VH: EVQLVESGGGLVQPGGSLRLSCAASGITMDDYWMNWVRQAPGKGLEWVAAINQDGNEKYYVGSVKGRFTISRDNAKNSLYLQMNSLRVEDTAVYYCVRDYYDLISDYYIHYWYFDLWGRGTLVTVSS
# VL: DIQMTQSPSSLSASVGDRVTITCRASQNVHNRLTWYQQKPGKAPKLLIYGASNLESGVPSRFSGSGSGTDFTLTISSLQPEDFATYYCQQYNGSPTTFGQGTKVEIK
# notes: Recombinant intact antibody
# B2: anti-IL17 monoclonal antibody 9GC2 (antibody, V domains shown)
# VH: EVQLVESGGGLVQPGGSLRLSCAASGFTIDNYWMNWVRQAPGKGLEWVAAINQDGNEKYYVGSVKGRFTISRDNAKNSLYLQMNSLRVEDTAVYYCVRDYYDVISDYYIHYWYFDLWGRGTLVTVSS
# VL: DIQMTQSPSSLSASVGDRVTITCRASQNVHNRLTWYQQKPGKAPKLLIYGASNLESGVPSRFSGSGSGTDFTLTISSLQPEDFATYYCQQYNGSPTTFGQGTKVEIK
# notes: Recombinant intact antibody
# B3: anti-IL17 monoclonal antibody 9GC5 (antibody, V domains shown)
# VH: EVQLVESGGGLVQPGGSLRLSCAASGMSMSDYWMNWVRQAPGKGLEWVAAINQDGDEKYYVGSVKGRFTISRDNAKNSLYLQMNSLRVEDTAVYYCVRDYYDLISDYYIHYWYFDLWGRGTLVTVSS
# VL: DIQMTQSPSSLSASVGDRVTITCRASQNVHNRLTWYQQKPGKAPKLLIYGASNLESGVPSRFSGSGSGTDFTLTISSLQPEDFATYYCQQYNGSPTTFGQGTKVEIK
# notes: Recombinant intact antibody
# B4: Ixekizumab (antibody, V domains shown)
# VH: QVQLVQSGAEVKKPGSSVKVSCKASGYSFTDYHIHWVRQAPGQGLEWMGVINPMYGTTDYNQRFKGRVTITADESTSTAYMELSSLRSEDTAVYYCARYDYFTGTGVYWGQGTLVTVSS
# VL: DIVMTQTPLSLSVTPGQPASISCRSSRSLVHSRGNTYLHWYLQKPGQSPQLLIYKVSNRFIGVPDRFSGSGSGTDFTLKISRVEAEDVGVYYCSQSTHLPFTFGQGTKLEIK
# B5: control antibody Secukinumab (antibody, V domains shown)
# VH: EVQLVESGGGLVQPGGSLRLSCAASGFTFSNYWMNWVRQAPGKGLEWVAAINQDGSEKYYVGSVKGRFTISRDNAKNSLYLQMNSLRVEDTAVYYCVRDYYDILTDYYIHYWYFDLWGRGTLVTVSS
# VL: not shown
# What was measured:
# [1] = target: T1, huIL17-his (human IL17 with C-terminal …); assay: cell-based or functional assay
# [2] = target: T2, Macaca fascicularis IL17 (mfIL17); assay: ELISA, coated IL17 1 ug/ml, HRP-anti-human IgG
# Experimental: (§1) Four kinds of prepared IL17 (huIL17, mIL17, mmIL17, and mfIL17) were used to coat 96-well ELISA plates overnight at 4° C. (1 μg/ml, 100 μl/well). A blocking solution (2% milk powder-PBST) was added, and the plates were incubated at 37° C. for 1 h. […] Then, the plates were washed four times with PBST. Then, HRP-anti-human IgG (a secondary antibody) was added, and allowed to incubate at 37° C. for 1 h. Then, the plates were washed four times with PBST. An OPD developing solution was added to develop for 5-10 min. Then, 1M H₂SO₄ was added to terminate the development.
# [3] = target: T3, mouse (Mus musculus) IL17 (moIL17); assay: ELISA, coated IL17 1 ug/ml, HRP-anti-human IgG
# Experimental: as §1
# [4] = target: T4, Macaca mulatta IL17 (mmIL17); assay: ELISA, coated IL17 1 ug/ml, HRP-anti-human IgG
# Experimental: as §1
Binder,IC50 of inhibiting IL17-induced release of IL6 by HDFa cells (2 nM IL17-His) [1] [nM],binding result [2],binding result [3],binding result [4]
B1,0.12,binds,no binding,binds
B2,0.22,binds,no binding,binds
B3,0.07,binds,no binding,binds
B4,,binds,no binding,binds
B5,,,no binding,
